B1: CD3 × CD33-BspAb104 (bispecific antibody)
scFv-Fc: QSALTQPASVSGSPGQSITISCTGTSSDVGSYNLVSWYQQHPGKAPKLMIYEDIRRPSGVSNRFSASKSGDTASLTISGLQAEDEADYYCSSYAGSTTFAIFGCGTKLTVLGGGGSGGGGSGGGGSGGGGSEVQLVQSGAEVKKPGESLKISCKGSEYSFTTYWIAWVRQMPGKCLEWMGIIYPGDSDTTYSPSFQGQVTISADKSISIAFLQWSSLKASDTAMYYCARQGELDAFDIWGQGTMVTVSSGGGGSDKTHTCPPCPAPEFEGGPSVFLFPPKPKDTLMISRTPEVTCVVVDVSHEDPEVKFNWYVDGVEVHNAKTKPREEQYNSTYRVVSVLTVLHQDWLNGKEYKCKVSNKALPASIEKTISKAKGQPREPQVYTLPPCREEMTKNQVSLWCLVKGFYPSDIAVEWESNGQPENNYKTTPPVLDSDGSFFLYSKLTVDKSRWQQGNVFSCSVMHEALHNHYTQKSLSLSPGK
heavy: EVQLVQSGAEVKKPGSSVKVSCKASGYTITDSNIHWVRQAPGQSLEWIGYIYPYNGGTDYNQKFKNRATLTVDNPTNTAYMELSSLRSEDTAFYYCVNGNPWLAYWGQGTLVTVSSASTKGPSVFPLAPSSKSTSGGTAALGCLVKDYFPEPVTVSWNSGALTSGVHTFPAVLQSSGLYSLSSVVTVPSSSLGTQTYICNVNHKPSNTKVDKRVEPKSCDKTHTCPPCPAPEFEGGPSVFLFPPKPKDTLMISRTPEVTCVVVDVSHEDPEVKFNWYVDGVEVHNAKTKPREEQYNSTYRVVSVLTVLHQDWLNGKEYKCKVSNKALPASIEKTISKAKGQPREPQVCTLPPSREEMTKNQVSLSCAVKGFYPSDIAVEWESNGQPENNYKTTPPVLDSDGSFFLVSKLTVDKSRWQQGNVFSCSVMHEALHNRFTQKSLSLSPGK
light: DIQLTQSPSTLSASVGDRVTITCRASESLDNYGIRFLTWFQQKPGKAPKLLMYAASNQGSGVPSRFSGSGSGTEFTLTISSLQPDDFATYYCQQTKEVPWSFGQGTKVEVKRTVAAPSVFIFPPSDEQLKSGTASVVCLLNNFYPREAKVQWKVDNALQSGNSQESVTEQDSKDSTYSLSSTLTLSKADYEKHKVYACEVTHQGLSSPVTKSFNRGEC
notes: KiH heterodimer
B2: CD3 × CD33-BspAb116 (bispecific antibody)
scFv-Fc: NFMLTQPHSVSESPGKTVTISCTRSSGSIASNYVQWYQQRPGSSPTTVIYEDNQRPSGVPDRFSGSIDSSSNSASLTISGLKTEDEAYYYCQSFDSSNRVFGCGTKLTVLGGGGSGGGGSGGGGSGGGGSQVQLQESGPGLVKPSQTLSLTCTVSGGSISSGGYYWSWIRQHPGKCLEWIGYIYYSGSTYYNPSLKSRVTISVDTSKDQFSLKLSSVTAADTAVYYCARERKTSLPFDIWGQGTMVTVSSGGGGSDKTHTCPPCPAPEFEGGPSVFLFPPKPKDTLMISRTPEVTCVVVDVSHEDPEVKFNWYVDGVEVHNAKTKPREEQYNSTYRVVSVLTVLHQDWLNGKEYKCKVSNKALPASIEKTISKAKGQPREPQVYTLPPCREEMTKNQVSLWCLVKGFYPSDIAVEWESNGQPENNYKTTPPVLDSDGSFFLYSKLTVDKSRWQQGNVFSCSVMHEALHNHYTQKSLSLSPGK
heavy: B1 heavy
light: B1 light
notes: KiH heterodimer
B3: CD3 × CD33-BspAb115 (bispecific antibody)
scFv-Fc: NFMLTQPHSVSESPGKTVTISCTRTSGSIASNYVQWYQQRPGSSPTTVIYEDNQRPSGVPDRFSGSIDSSSNSASLTISGLKTEDEAAYYCQSYDRSNRVFGCGTKLTVLGGGGSGGGGSGGGGSGGGGSQVQLQESGPGLVKPSETLSLTCTVSGGSISSYYWSWIRQPAGKCLEWIGRIYTSGSTKYNPSLKSRVTMSVDTSKNQFSLKLISVTAADTAVYFCARERIRDLYFDYWGQGTLVTVSSGGGGSDKTHTCPPCPAPEFEGGPSVFLFPPKPKDTLMISRTPEVTCVVVDVSHEDPEVKFNWYVDGVEVHNAKTKPREEQYNSTYRVVSVLTVLHQDWLNGKEYKCKVSNKALPASIEKTISKAKGQPREPQVYTLPPCREEMTKNQVSLWCLVKGFYPSDIAVEWESNGQPENNYKTTPPVLDSDGSFFLYSKLTVDKSRWQQGNVFSCSVMHEALHNHYTQKSLSLSPGK
heavy: B1 heavy
light: B1 light
notes: KiH heterodimer
B4: CD3 × CD33-BspAb113 (bispecific antibody)
scFv-Fc: NFMLTQPHSVSESPGKTVTISCTRSSGSIASNYVQWYQQRPGSSPTTVIYEDNQRPSGVPDRFSGSIDSSSNSASLTISGLKTEDEADYYCQSYDSSNRVFGCGTKLTVLGGGGSGGGGSGGGGSGGGGSEVQLVESGGGLVKFGGSLRLSCAASGFTFSRYSMNWVRQAPGKCLEWVSSISSSSSYKYYADSVKGRFTISRDNAKNSLYLQMNSLRAEDTAVYYCAREGGNSHGMDVWGQGTTVTVSSGGGGSDKTHTCPPCPAPEFEGGPSVFLFPPKPKDTLMISRTPEVTCVVVDVSHEDPEVKFNWYVDGVEVHNAKTKPREEQYNSTYRVVSVLTVLHQDWLNGKEYKCKVSNKALPASIEKTISKAKGQPREPQVYTLPPCREEMTKNQVSLWCLVKGFYPSDIAVEWESNGQPENNYKTTPPVLDSDGSFFLYSKLTVDKSRWQQGNVFSCSVMHEALHNHYTQKSLSLSPGK
heavy: B1 heavy
light: B1 light
notes: KiH heterodimer
B5: CD3 × CD33-BspAb119 (bispecific antibody)
scFv-Fc: B4 scFv-Fc with L134V, V135A, F144P, S185G, K188T, A227V, G230R, N232K, S233G, H234A
heavy: B1 heavy
light: B1 light
notes: KiH heterodimer

Changes are numbered by the printed parent chain.

T1 sequence (P07766 23-207, chain 1 of 3): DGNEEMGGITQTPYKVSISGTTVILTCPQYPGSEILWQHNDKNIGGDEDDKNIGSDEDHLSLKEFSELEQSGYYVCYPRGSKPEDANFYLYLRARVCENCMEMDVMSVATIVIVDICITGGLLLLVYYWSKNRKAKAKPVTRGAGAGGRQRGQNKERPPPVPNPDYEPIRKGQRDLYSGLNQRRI
T1 sequence (P04234 22-171, chain 2 of 3): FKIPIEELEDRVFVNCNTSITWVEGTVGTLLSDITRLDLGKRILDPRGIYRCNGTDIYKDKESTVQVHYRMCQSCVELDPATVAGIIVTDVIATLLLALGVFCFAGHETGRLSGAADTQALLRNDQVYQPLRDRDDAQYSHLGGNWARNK
T1 sequence (P09693 23-182, chain 3 of 3): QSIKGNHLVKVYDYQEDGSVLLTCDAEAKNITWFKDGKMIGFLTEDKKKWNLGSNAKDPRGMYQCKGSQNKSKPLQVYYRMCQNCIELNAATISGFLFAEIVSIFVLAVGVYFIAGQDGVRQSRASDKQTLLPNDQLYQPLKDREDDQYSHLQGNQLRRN

The first assay has as its target T1, human CD3 (TCR/CD3 complex on the cell surface) (human, UniProt P07766 23-207; P04234 22-171; P09693 23-182).
T1 construct: whole, on cells; Native CD3 on human Pan-T cells or Jurkat wild-type cells; also called CD3 on Pan-T cells; CD3 on Jurkat WT cells
The experiment in a line: flow cytometry, Pan-T cells, 1 ug/mL.
As to B1, the “% Positive” value is 1.2% and the gMFI is 2020 gMFI.
As for B2, the “% Positive” value turned out to be 31.6% and the gMFI was 5260 gMFI.
Regarding B3, the “% Positive” value was 63.4% and the gMFI was 8660 gMFI.
For the molecule B4, the “% Positive” value came out at 96.2% and the gMFI is 24900 gMFI.
B5: the “% Positive” value came out at 99.8% and the gMFI stood at 88200 gMFI.

A further assay has as its target T1, human CD3 (TCR/CD3 complex on the cell …). In words: flow cytometry, Pan-T cells, 10 ug/mL. In general terms: A flow cytometer gives signals particle by particle.
For B1, the “% Positive” value was found to be 1.6% and the gMFI was determined as 2090 gMFI.
Take B2: the “% Positive” value was determined as 98.2% and the gMFI is 30000 gMFI.
For B3, the “% Positive” value was 95.5% and the gMFI worked out at 34200 gMFI.
In the case of B4, the “% Positive” value was found to be 99.5% and the gMFI was 111000 gMFI.
Regarding B5, the “% Positive” value was found to be 99.7% and the gMFI was 166000 gMFI.

The target is the same in a further assay. In words: flow cytometry, Jurkat WT cells, 1 ug/mL.
B1: the gMFI was 1700 gMFI.
B2: the gMFI was determined as 3320 gMFI.
Molecule B3 registered a gMFI of 7380 gMFI.
Still for that read-out and setting: then B4, with 10100 gMFI.
With B5, the gMFI stood at 22400 gMFI.

For the next assay the target is unchanged. In words: flow cytometry, Jurkat WT cells, 10 ug/mL.
In the case of B1, the gMFI came out at 1790 gMFI.
In turn, B2 returned a gMFI of 9600 gMFI.
In turn, B3 came in with a gMFI of 12600 gMFI.
For the molecule B4, the gMFI came out at 16000 gMFI.
For B5, the gMFI is 25700 gMFI.

For another assay the target is unchanged. The experiment in a line: flow cytometry, Jurkat WT gMFI over Jurkat KO gMFI, 1 ug/mL.
B1: the “Jurkat WT/KO (Fold)” value is 0.8 fold.
Consider B2, for which the “Jurkat WT/KO (Fold)” value turned out to be 1.6 fold.
With B3, the “Jurkat WT/KO (Fold)” value is 3.6 fold.
Turning to B4, the “Jurkat WT/KO (Fold)” value came to 3.9 fold.
B5: the “Jurkat WT/KO (Fold)” value was determined as 7.8 fold.

For the next assay the target is unchanged. In words: flow cytometry, Jurkat WT gMFI over Jurkat KO gMFI, 10 ug/mL.
As for B1, the “Jurkat WT/KO (Fold)” value worked out at 1 fold.
Same read-out and setting: then B2, with 4.1 fold.
Consider B3, for which the “Jurkat WT/KO (Fold)” value turned out to be 5.7 fold.
With B4, the “Jurkat WT/KO (Fold)” value was found to be 5.9 fold.
Turning to B5, the “Jurkat WT/KO (Fold)” value stood at 9 fold.

The values are drawn from patent US20260167721A1 (ABLEXIS, published 2026).
